Source: the supplement of paper PMC9170038

Tested on: MS2 coat protein
Experiment: apparent KD of MS2 coat protein; designed switch direction (-1 OFF switch, 1 ON switch): -1; higher = weaker reporter binding
How it was run: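 Normalised cluster fluorescence was curve-fitted, and each design's median over clusters is its apparent KD. Before this, SNAP-549-labelled MS2 coat protein was titrated from 0.7 or 1.5 nM, doubling to 3 µM, over RNA switches transcribed on Illumina chips by stalled E. coli RNA polymerase. Titrations had no input, 200 uM small-molecule ligand, or an oligonucleotide input, and steps lasted 0.8–1.5 h (lowest) to 10–20 min (highest).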

[1] = input ligand: microRNA oligo, concentration not stated
[2] = Eterna round: R95, input ligand: microRNA oligo, concentration not stated
[3] = Eterna round: R95, input ligand: FMN 200 uM
[4] = Eterna round: R95, input ligand: none

| Sequence | apparent KD of MS2 coat protein (input ligand: FMN 200 uM) | apparent KD of MS2 coat protein (input ligand: none) | apparent KD of MS2 coat protein [1] | apparent KD of MS2 coat protein [2] | apparent KD of MS2 coat protein [3] | apparent KD of MS2 coat protein [4] |
| --- | --- | --- | --- | --- | --- | --- |
| UGAUGCUCAGGAUAUACAUCAGUGUUCAGGCCAAAAGGCGGACAUGAGGAUCACCCAUGUAGAAGGGAGCGUUC [Eternabot (L1) Solution 13] (Eterna round: R97, puzzle: Exclusion 2) | 900 nM | 380 nM | – | – | – | – |
| UAAGAUUACCGAGGAUAUGCUGGUUUCUCUUAAGCAGAAGGCGGACUCAACAUGAGGAUCACCCAUGUAAGAAGGGUAUUAGAU [Ex NG1 #10] (Eterna round: R96, puzzle: Exclusion NG 1) | 85.9 nM | 116 nM | 78.6 nM | – | – | – |
| CUGAGCAGACGGAGAUCCAACAUGAGGAUCACCCAUGUCUCAAAAGCUUUUUGCUUAAACGUCUUAUCUCUGUUCAC [Esquitian 5] (Eterna round: R97, puzzle: Sensor, turn-off variant 1) | 35.7 nM | 33.8 nM | – | – | – | – |
| AGUGUGUGGCAGGAUAUUCUAAUCGUGAGGAGGGAAGAAGGGUCUACAUGAGGAUCACCCAUGUAAGCGGUUGA [Ex6 #42] (Eterna round: R97, puzzle: Exclusion 6) | 259 nM | 140 nM | – | – | – | – |
| UGGUGUGAAGGAUAUACAUGAGGAUCACCCAUGUAUGAGGUGGAGGUUGAGGUGGAGGGUAGAAGGUCAGGUGG [JR_Exclusion3_Sub012] (puzzle: Exclusion 3) | – | – | – | 26.8 nM | – | – |
| UUGGCAGGUUUUUUGUUUGACAUGAGGAUCACCCAUGUUGCGUGGGUUGUGGGUGGGCGGUGUUUAUUUAUGGUUCU [-16.5, -38.6 kcal, A 12%] (Eterna round: R97, puzzle: Sensor, turn-off variant 1) | 43.1 nM | 48.4 nM | – | – | – | – |
| AAACGGCAAUAAGGAUAUGCUUACCUGGGUCGUCUUCAAACAUGAGGAUCACCCAUGUAGUCGACGCAGAAGGUAUUCAAAGCC [ExNG2 first] (Eterna round: R96, puzzle: Exclusion NG 2) | 13.5 nM | 12.8 nM | 10.4 nM | – | – | – |
| AGUAAUGUAUAAGGAUAUCUCGCAAAUAAAGGCAGAGAAGGUAUACCCACUUGAGGAUCACCCAAGUCUCGUGUGCCUGGUGGA [Mutated MS2 EX1.30] (Eterna round: R96, puzzle: Exclusion NG 1) | 23 nM | 25.1 nM | 20.1 nM | – | – | – |
| CUUUUGCAACAAGCCAAUAACAUGAGGAUCACCCAUGUCCUGUUGAGGUCUUCCGUCGUUCUUGCUCACGUCUUACG [Eternabot (L1) Solution 50] (Eterna round: R97, puzzle: Sensor, turn-off variant 1) | 54.8 nM | 56.3 nM | – | – | – | – |
| CCCAGUUAGUCAGGAUAUCAUACAUGAGGAUCACCCAUGUAAUAAAUGAGGAUUUCGGGUGUCUAUGAGAAGGGACGGAUAGGC [Ostracism 28 - Jieux - Exclusion NG 2] (Eterna round: R96, puzzle: Exclusion NG 2) | 29.6 nM | 24.5 nM | 18.8 nM | – | – | – |
| GAAGAGGUAGGAUAUACGAAAAAAAAGGGUAGAAAAAAAACACAUGAGGAUCACCCAUGUAGAAGGACCAAAAG [salish99_ex2_r3_034] (puzzle: Exclusion 2) | – | – | – | 36 nM | 102 nM | 23.1 nM |
| CCGUAGUCAGGAUAUACAUGAGGAUCACCCAUGUAAAAUUUUAAUUUAAUUUGAAGGUGUAGAAGGGACCAGUC [Ex3 #27] (Eterna round: R97, puzzle: Exclusion 3) | 34.9 nM | 33.3 nM | – | – | – | – |
| UCGGCCGCCGUGAGGAUAUGCCCGCGCGCCCGCGGGCAGAAGGCACAUGAGGAUCACCCAUGUCCCGCGGCACC [salish99_bmx4_r4_125] (Eterna round: R97, puzzle: Brourd's mod of Exclusion 4) | 15.1 nM | 14.1 nM | – | – | – | – |
| CGAGCACGUGUAAGGAUAUGCUCGCUCUAUUUGGCGCAGAAGGUACAUGAGGAUCACCCAUGUAGCGACUUGGG [Eternabot (L2) Solution 7] (Eterna round: R97, puzzle: Brourd's mod of Exclusion 4) | 41.6 nM | 27.6 nM | – | – | – | – |
| GUAGGGUCAGGAUAUACGGGCGGGAGGAUGUAGUGGAGUUGGUAGAAGGGACAUGAGGAUCACCCAUGUGAGAA [JR_Exclu4_Sub053] (puzzle: Exclusion 4) | – | – | – | 27.3 nM | – | – |
| AAUAAAGUAGGAUAUCGGCCAGCGAACAUGAGGAUCACCCAUGUGAUGCCGUGCCGACGCCGAGAAGGGCUUAAAA [Usceisma] (puzzle: Exclusion 5) | – | – | – | 12 nM | 13.5 nM | 12.1 nM |
| UCGUAGUCAGGAUAUACAUGAGGAUCACCCAUGUAAAAUUUUAAUUUAAUUUUAAGGUGUAGAAGGGACCAGUU [Ex3 #22] (Eterna round: R97, puzzle: Exclusion 3) | 43.4 nM | 51.8 nM | – | – | – | – |

| Sequence | apparent KD of MS2 coat protein (input ligand: FMN 200 uM) | apparent KD of MS2 coat protein (input ligand: none) | apparent KD of MS2 coat protein [1] | apparent KD of MS2 coat protein [2] | apparent KD of MS2 coat protein [3] | apparent KD of MS2 coat protein [4] |
| --- | --- | --- | --- | --- | --- | --- |
| ACUCGUGCCCGAGGAUAUUACAGCAACCUGGCUUAAGAAGGCGGGACAUGAGGAUCACCCAUGUUCUGCGCAUCGGUCGUCAGA [Anzatete] (Eterna round: R96, puzzle: Exclusion NG 1) | 18.8 nM | 13 nM | 9.36 nM | – | – | – |
| UCGGCGCGAGGAUAUGCGGUUCCUCCCUAGGGCCGGAGCGUACAUGAGGAUCACCCAUGUAGAAGGCGCGCCGC [Apr-15 SS2-35] (puzzle: Exclusion 2) | – | – | – | 11.2 nM | – | – |
| CCAUCGUGUGUGAGGAUAUGCUGGACCUUGGUUCAGCAGAAGGCACAUGAGGAUCACCCAUGUGAAGACGGUGG [Mat - Exclusion 4 - JL Mod - D89] (puzzle: Brourd's mod of Exclusion 4) | – | – | – | 24.6 nM | 51.4 nM | 18.1 nM |
| GGAUAUAGGCGAGGAUAUACGCACCACUAACGAGUAGAAGGCGCACAUGAGGAUCACCCAUGUGAGUUCUCAAUAUGAUACACG [Prohibition 70 - Jieux - Exclusion NG 1] (Eterna round: R96, puzzle: Exclusion NG 1) | 14.9 nM | 18.6 nM | 14.1 nM | – | – | – |
| GAUUAACAUGAGGAUCACCCAUGUGAGGAUAUGGACUUGCCCACUUACCCUUUAGAGUCUAGAAGGCGCAUUUC [1986#31] (Eterna round: R97, puzzle: Exclusion 1) | 23.1 nM | 20.9 nM | – | – | – | – |
| UUUUUACAUGAGGAUCACCCAUGUCAGGAUAUGGUUAUAUUUUAUUAUUUUAUUUUUUCCAGAAGGGACUAUUA [My solution] (puzzle: Exclusion 1) | – | – | – | 273 nM | – | – |
| GUGUAGUCAGGAUAUACAUAGGAAGAGAAGAGAAGAGAAGUACAUGAGGAUCACCCAUGUAGAAGGGACAGUGU [Excluse me!! 6 - Jieux - Exclusion 2] (puzzle: Exclusion 2) | – | – | – | 21.7 nM | – | – |
| GGUACUAACACGAAAGUGUUAGUACAAUAAGCUUGUGAAACAUGAGGAUCACCCAUGUCCUCAUAAGCUCGUCUUAA [salish99_TOv2_r3_004] (puzzle: Sensor v3, turn-off variant 2) | – | – | – | 238 nM | 14.4 nM | 13.3 nM |
| GACUUCUGAGGAUAUACAUAGAUUUACAUGAGGAUCACCCAUGUUCCUCUAUGUAUAAAUGUAGAAGGCAGAAGAA [Mat - Exclusion 5 - JL Mod - D64] (Eterna round: R97, puzzle: Exclusion 5) | 66.8 nM | 15.5 nM | – | – | – | – |
| AUGGGUCCUCACGGAGCUACAUGAGGAUCACCCAUGUGUAUUGAGGAUAUCCACUGCCGACGGCUGGAGAAGGCAGUGUACUGU [Ex NG3 #93] (Eterna round: R96, puzzle: Exclusion NG 3) | 97.8 nM | 109 nM | 61.5 nM | – | – | – |
| CAUAGUUACUCAGGAUAUCUUACAUGAGGAUCACCCAUGUAAUAAAUGAGAAUUUCGAAUGUAUAAGAGAAGGGAGAAAUCUAC [Ostracism 58 - Jieux - Exclusion NG 2] (Eterna round: R96, puzzle: Exclusion NG 2) | 15.9 nM | 17.6 nM | 14 nM | – | – | – |
| AAGAGUGCAGGAUAUACUUGUUAGGACGGUUGGAUGGUUUGACAUGAGGAUCACCCAUGUAGAAGGGCAGAGAG [JR_Exclu2_Sub053] (puzzle: Exclusion 2) | – | – | – | 70.5 nM | – | – |
| GUACUAAGUGUGAGGAUAUCACAGGACGUUCACUAUGAGAAGGUACAUGAGGAUCACCCAUGUAUCGUGGGUCA [Eternabot (Original) Solution 7] (Eterna round: R97, puzzle: Brourd's mod of Exclusion 4) | 20.3 nM | 17.7 nM | – | – | – | – |
| UAUACACAUGAGGAUCACCCAUGUGAGGAUAUGCGUACGUUGUCCGUAGGCGACGUGCGCAGAAGGCGCAAGGU [Mat - Mod of JL D95] (puzzle: Exclusion 1) | – | – | – | 61.4 nM | – | – |
| CCCAGUUAGAGAGGAUAUCGUACAUGAGGAUCACCCAUGUAAUAAAUGAGGAUUUCGGGUGUCUGCGAGAAGGCUCGGAUAGGC [Ostracism 31 - Jieux - Exclusion NG 2] (Eterna round: R96, puzzle: Exclusion NG 2) | 105 nM | 47 nM | 32.9 nM | – | – | – |
| CUUUUGUGAGGAUAUUGGUAGUAAAUAAAUAAAAUUAUUACCGAGAAGGCACAUGAGGAUCACCCAUGUUCCUC [Salish 062 v17] (Eterna round: R97, puzzle: Exclusion 4) | 823 nM | 50.7 nM | – | – | – | – |
| GAUUAUGCGAGCUUUAGGGACAUGAGGAUCACCCAUGUUCGUCUUAUUGAUCUAGGUGCGCUAACAUACCUAAAUCU [JMF 49] (puzzle: Sensor v3, turn-off variant 1) | – | – | – | 34.7 nM | 26.2 nM | 30 nM |
